# In the supplement of paper PMC7125110:
# ± gives the standard error. Variants at the floor of the assay were thinned out.
# B1: glmS ribozyme (parent)
# chain: AUAAAAGCGCCAGAACUACAGAAAUGUAGUUGACGAGGAGGAGGUUUAUCGAAUUUUCGGCGGAUGCCUCCAAA
# Variants of: B1
# Assay: self-cleavage kobs at 640 uM GlcN6P; higher = faster cleavage; RNA array
# Settings: with glucosamine-6-phosphate
# Method in brief: (§1)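 E. coli RNA polymerase transcribed barcoded ribozyme variants in situ on sequenced MiSeq chips, which were tracked via a hybridised Cy3 probe at 37 °C. Tiles were imaged over ~14 h after glucosamine-6-phosphate (40 μM to 10 mM) in HEPES/KCl/Mg(OAc)2 buffer was flowed in. Normalised per-tile medians were fit to one- or two-exponential decays for kobs, and kcat and KM came from weighted Michaelis–Menten fits.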
row,Variant,self-cleavage kobs at 640 uM GlcN6P
1,G43U U54G C58A C67U,< 1e-05 s⁻¹
2,U49C C61A,< 1e-05 s⁻¹
3,C61G C68U U69A,< 1e-05 s⁻¹
4,A48G C50U A52U C70G,4.03e-05 ± 2e-05 s⁻¹
5,G51U U55C,< 1e-05 s⁻¹
6,U46A U54G C70A,5.86e-05 ± 2.1e-05 s⁻¹
7,U49C C58U G66A,< 1e-05 s⁻¹
8,A52G U56G,0.000309 ± 5.9e-05 s⁻¹
9,G43A A53G G60U,< 1e-05 s⁻¹
10,U45A C58A C71U,0.000102 ± 2.9e-05 s⁻¹
11,G44U G60C G62U,< 1e-05 s⁻¹
12,C67A U69A,0.000234 ± 4.1e-05 s⁻¹
13,U47C U49G C50U,< 1e-05 s⁻¹
14,U56G U57A,6.17e-05 ± 1e-05 s⁻¹
15,U55A U56A,0.00306 ± 0.00092 s⁻¹
16,U46A C58G,< 1e-05 s⁻¹
17,G43C G44A C68A,< 1e-05 s⁻¹
18,C50G C61U C67U,0.000213 ± 4.4e-05 s⁻¹

row,Variant,self-cleavage kobs at 640 uM GlcN6P
1,U45C A52G C70U,4.7e-05 ± 1.6e-05 s⁻¹
2,G43A U45A A53U G62C A64U,< 1e-05 s⁻¹
3,U46A U65A,0.000776 ± 0.0002 s⁻¹
4,G43A U55G C61U G62C,< 1e-05 s⁻¹
5,U55A G63U C70G,6.74e-05 ± 2.6e-05 s⁻¹
6,C50G A53C U54A U69A,0.000691 ± 0.00026 s⁻¹
7,G44A U46C U49C U54G C67G,< 1e-05 s⁻¹
8,U55G G66C C70U,0.000456 ± 0.0001 s⁻¹
9,U56G U57G U65C,< 1e-05 s⁻¹
10,G43A U47A A53C G59C,< 1e-05 s⁻¹
11,U46C U69G,8.03e-05 ± 1.7e-05 s⁻¹
12,C58A C61G C68U,0.000169 ± 7.3e-05 s⁻¹
13,G43A G44C C67A C70A,< 1e-05 s⁻¹
14,A42U U69C,0.0106 ± 0.0031 s⁻¹
15,C58G C68A U69G,0.000107 ± 3.5e-05 s⁻¹
16,A48U G59A C67U,< 1e-05 s⁻¹
17,A42U U47A U54C,3.85e-05 ± 9.6e-06 s⁻¹

# Variants of: B1
# Assay: self-cleavage kobs at 2500 uM GlcN6P; higher = faster cleavage; RNA array
# Settings: with glucosamine-6-phosphate
# Method in brief: as §1
row,Variant,self-cleavage kobs at 2500 uM GlcN6P
1,A5U C10G A42U U57C C70A,< 1e-05 s⁻¹
2,A1U A15G A36U,< 1e-05 s⁻¹
3,G7C G44C C50U G62A C67U C70U,< 1e-05 s⁻¹
4,U46A U54G C70A,0.000289 ± 7.5e-05 s⁻¹
5,A6U U31G A36U,< 1e-05 s⁻¹
6,G7A C11U U45C,< 1e-05 s⁻¹
7,A52G U56G,0.000536 ± 0.00011 s⁻¹
8,A6U G9A C61A,< 1e-05 s⁻¹
9,G7A G9U A33C U47G,< 1e-05 s⁻¹
10,A6C C8G A14C A48C,< 1e-05 s⁻¹
11,G7U C8U G41C C70G,< 1e-05 s⁻¹
12,G43A A53G G60U,< 1e-05 s⁻¹
13,G7C U30G G32U A64G,< 1e-05 s⁻¹
14,U45A C58A C71U,0.000293 ± 8.3e-05 s⁻¹
15,G44U G60C G62U,< 1e-05 s⁻¹
16,C67A U69A,0.000247 ± 5.8e-05 s⁻¹
17,A6G G9C C70G,< 1e-05 s⁻¹
18,A6C A48C G51U,< 1e-05 s⁻¹
19,U47C U49G C50U,< 1e-05 s⁻¹

row,Variant,self-cleavage kobs at 2500 uM GlcN6P
1,U56G U57A,0.000102 ± 1.2e-05 s⁻¹
2,A6U G44A A48U G63A U65C,< 1e-05 s⁻¹
3,U55A U56A,0.00346 ± 0.0013 s⁻¹
4,G7U C16G A48U,< 1e-05 s⁻¹
5,G7C A15U U31C,< 1e-05 s⁻¹
6,G43C G44A C68A,< 1e-05 s⁻¹
7,A6G A12U C67U,0.000919 ± 0.00023 s⁻¹
8,U45C A52G C70U,6.92e-05 ± 1.3e-05 s⁻¹
9,A6G A36C U54G G62U,< 1e-05 s⁻¹
10,G7U A33U U69G,0.000542 ± 0.00021 s⁻¹
11,G43A U45A A53U G62C A64U,< 1e-05 s⁻¹
12,A6U U31G G41U,< 1e-05 s⁻¹
13,G7A A12U U31G C70A,< 1e-05 s⁻¹
14,G7A A14C U30A,< 1e-05 s⁻¹
15,A6U C67G C71A,< 1e-05 s⁻¹
16,A6G C11G U45A C50A,< 1e-05 s⁻¹
17,A6U G13U G44C,< 1e-05 s⁻¹
18,C50G A53C U54A U69A,0.000283 ± 0.00011 s⁻¹
19,A6G G37A G66U C70U,< 1e-05 s⁻¹

row,Variant,self-cleavage kobs at 2500 uM GlcN6P
1,G7C G13U G43C G66U,< 1e-05 s⁻¹
2,G44A U46C U49C U54G C67G,< 1e-05 s⁻¹
3,U55G G66C C70U,0.000343 ± 8.7e-05 s⁻¹
4,A6C A52U G60A,< 1e-05 s⁻¹
5,A6U A15G C16U,5.09e-05 ± 1.6e-05 s⁻¹
6,U56G U57G U65C,< 1e-05 s⁻¹
7,G43A U47A A53C G59C,< 1e-05 s⁻¹
8,U46C U69G,0.000153 ± 2.7e-05 s⁻¹
9,A6G C16U G29C,6.69e-05 ± 2e-05 s⁻¹
10,A6C C34G C50G,4.66e-05 ± 2.1e-05 s⁻¹
11,G43A G44C C67A C70A,< 1e-05 s⁻¹
12,G7A C16U U47C C58G,< 1e-05 s⁻¹
13,A42U U69C,0.00357 ± 0.0013 s⁻¹
14,C58G C68A U69G,5.37e-05 ± 2.4e-05 s⁻¹
15,G7C A14C G35C U57G,< 1e-05 s⁻¹
16,A6G A15U G59C,< 1e-05 s⁻¹
17,G7A G51U U54G G63A,< 1e-05 s⁻¹
18,A48U G59A C67U,< 1e-05 s⁻¹
19,A6C G9U C70A,< 1e-05 s⁻¹

# Variants of: B1
# Assay: self-cleavage kobs at 10000 uM GlcN6P; higher = faster cleavage; RNA array
# Settings: with glucosamine-6-phosphate
# Method in brief: as §1
row,Variant,self-cleavage kobs at 10000 uM GlcN6P
1,G51U U55C,< 1e-05 s⁻¹
2,A6U U31G A36U,< 1e-05 s⁻¹
3,A52G U56G,0.0014 ± 0.00025 s⁻¹
4,G44U G60C G62U,< 1e-05 s⁻¹
5,U56G U57A,0.000326 ± 4.4e-05 s⁻¹
6,U55A U56A,0.0126 ± 0.0024 s⁻¹
7,A6G C16U G29C,6.83e-05 ± 1.6e-05 s⁻¹
8,A6C G9U C70A,< 1e-05 s⁻¹
